Each block holds one molecule with its values, some of them ahead of it. Bridge positions count the residues as written; N and C are the ends. Square brackets hold non-standard residues; d marks the D form. Ends that are not written are not given here. 1Nal = N[C@@H](Cc1cccc2ccccc12)C(=O)O; Sar = CNCC(=O)O
What was measured:
[1] = tested on: human, bone marrow derived CD34+ cells; experiment: C/BFU-e assay (erythroid colonies); type: cell-based
Description: EPO-R signaling stimulates the differentiation of bone marrow stem cells into proliferating red blood cell precursors. This assay measures the ability of test peptides to stimulate the proliferation and differentiation of red blood cell precursors from primary human bone marrow pluripotent stem cells.
For this assay, serial dilutions of test peptide are made in IMDM medium (Gibco) supplemented with 10% FBS (Hyclone). These serial dilutions, or positive control EPO peptide, are then added to methylcellulose to give a final volume of 1.5 mL. The methylcellulose and peptide mixture is then vortexed thoroughly. Aliquots (100,000 cells/mL) of human, bone marrow derived CD34+ cells (Poietics/Cambrex) are thawed. The thawed cells are gently added to 0.1 mL of 1 mg/ml DNAse (Stem Cells) in a 50 mL tube. Next, 40-50 mL IMDM medium is added gently to cells: the medium is added drop by drop along the side of the 50 mL tube for the first 10 mL, and then the remaining volume of medium is slowly dispensed along the side of the tube. The cells are then spun at 900 rpm for 20 min, and the media removed carefully by gentle aspiration. The cells are resuspended in 1 ml of IMDM medium and the cell density per mL is counted on hemacytometer slide (10 μL aliquot of cell suspension on slide, and cell density is the average count×10,000 cells/ml). The cells are then diluted in IMDM medium to a cell density of 15,000 cells/mL. A 100 μL of diluted cells is then added to each 1.5 mL methyl cellulose plus peptide sample (final cell concentration in assay media is 1000 cells/mL), and the mixture is vortexed. Allow the bubbles in the mixture to disappear, and then aspirate 1 mL using blunt-end needle. Add 0.25 mL aspirated mixture from each sample into each of 4 wells of a 24-well plate (Falcon brand). Incubate the plated mixtures at 37° C. under 5% CO2 in a humid incubator for 14 days. Score for the presence of erythroid colonies using a phase microscope (5×-10× objective, final magnification of 100×). The concentration of test peptide at which the number of formed colonies is 90% of maximum, relative to that observed with the EPO positive control, is recorded as the EC90 [See Table 2: C/BFU-e EC90].

[2] = Pharmacokinetic studies in rats; type: in vivo
[3] = Pharmacokinetic studies in dogs; type: in vivo
erythropoiesis [4] = experiment: Pharmacology studies in animals (erythropoiesis); type: in vivo, mice, rats, dogs, rabbits and monkeys
erythropoiesis [5] = experiment: Phase 1 study in normal healthy volunteers: pharmacodynamics; type: in vivo, human
Description: (§1) Peptide I has been tested in […] in one Phase 1 study. This first-in-human study with Peptide I was a randomized, double-blind, placebo-controlled, single-dose, IV, escalating dose, safety and tolerability trial. The primary objectives of the study were to evaluate the safety and pharmacokinetics of Peptide I, and to establish a pharmacologically active dose (PAD). Cohorts of seven male volunteers were scheduled to receive single doses of Peptide I or placebo in a 5:2 ratio. Cohorts were to be added at increasing dose levels until a PAD, as determined by an increase in hemoglobin from baseline values, was observed, at which point the dose level identified as the PAD would be repeated in another cohort of volunteers.
(§2) The study was initiated in four cohorts were enrolled in a consecutive manner at Peptide I doses of 0.025, 0.05, 0.1 mg/kg, and […], respectively (single dose per cohort). […] As such, the study was terminated.

[6] = Phase 1 study in normal healthy volunteers: pharmacokinetics; type: in vivo, human
Description: as §1, §2
In the 0.025 mg/kg dose group, Peptide I concentration peaked between 5 and 15 minutes, while tmax approached 1 hour for the 0.1 mg/kg dose.

[7] = Phase 1 study in normal healthy volunteers: safety; type: in vivo, human
Description: as §1, §2

[8] = Pharmacokinetic studies in rats, dogs and monkeys (general statements); type: in vivo
[9] = target: T1, recombinant EPO-R produced in Chinese Hamster Ovary cells as a fusion protein to a portion of the human … (human, UniProt P19235 25-250); experiment: AlphaQuest bead proximity competition; competitor: biotinylated tracer peptide SEQ ID NO: 4 (30 nM) on streptavidin donor beads, EPO-R fusion on acceptor beads
T1 sequence (looked up): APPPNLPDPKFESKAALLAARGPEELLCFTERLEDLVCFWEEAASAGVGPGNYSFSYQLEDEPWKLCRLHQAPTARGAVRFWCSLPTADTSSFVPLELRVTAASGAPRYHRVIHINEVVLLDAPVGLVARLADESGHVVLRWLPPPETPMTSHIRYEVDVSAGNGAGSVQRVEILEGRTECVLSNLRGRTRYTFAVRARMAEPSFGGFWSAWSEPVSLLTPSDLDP

[10] = target: T2, Recombinant Human EPO R/Fc Chimera (human, UniProt P19235 25-250); experiment: radioligand competition; competitor: 125I-EPO; EPO R/Fc chimera 100 pg/tube, Protein-G Sepharose pull-down, gamma counting
T2 construct: extracellular domain; Bought: R&D Systems, catalog number 963-ER; also called recombinant EPOr extracellular domain fused to the Fc portion of human IgG1; recombinant erythropoietin receptor; not shown: Fc portion of human IgG1
T2 sequence (looked up): T1 sequence (looked up)

[11] = five-sixth nephrectomy rats, IV 9.87 mg/kg

Molecule: peptide dimer of SEQ ID NO: 2 monomers (AcG)GLYACHMGPIT(1-nal)VCQPLR(MeG)K; a fully synthetic EPO receptor agonist (Ac-GGLYACHMGPIT[1Nal]VCQPLR[Sar]K; disulfide 6-15 (inferred); not fully specified (residue 1); printed as (AcG)GLYACHMGPIT(1-nal)VCQPLR(MeG)K; also: homodimer joined through a branched tertiary amide linker on the Lys21 side chain, PEG carried on the linker) [Peptide I]
EC90 ([1]; Table 6): 3 nM
clearance [2, 11]: 0.763 mL/h/kg
t1/2 [2, 11]: approximately 48 hours
clearance ([2]; normocythemic rats): 1.44 mL/h/kg
Elimination half life (t1/2) ([2]; rats): 21.5 to 30.7 h
Elimination half life (t1/2) [3]: 73.7 h
rise in reticulocytes and RBCs as measured by hemoglobin levels (erythropoiesis [4]; rats and monkeys): dose proportional
stimulation of erythropoiesis (erythropoiesis [4]; single or repeat dose, mice, rats (normocythemic and nephrectomized), dogs, rabbits, monkeys): potent stimulator of erythropoiesis with dose-dependent activity
average hemoglobin levels at Day 42 (erythropoiesis [5]; 0.1 mg/kg): returned to baseline
average maximum increase from baseline in hemoglobin (erythropoiesis [5]; 0.1 mg/kg, 10 recipients): 1.36 ± 0.39 g/dL
difference in change from baseline hemoglobin versus placebo (erythropoiesis [5]; 0.1 mg/kg, at Day 42 as throughout the study): ≥ 0.5 g/dL
time of maximum reticulocyte counts postdose (erythropoiesis [5]; all dose cohorts): approximately 7 days
hemoglobin response and change from baseline (mean and maximum) (erythropoiesis [5]; over 28 days post-dose): dose-dependent increases
Reticulocyte count (absolute number and percent) (erythropoiesis [5]; single IV 0.025, 0.05, 0.1 mg/kg): dose-dependent increase
PAD associated with at least a 1.0 g/dL increase in hemoglobin (erythropoiesis [5]; single IV dose, NHV): 0.1 mg/kg
Serum EPO levels (erythropoiesis [5]; with increasing dose): transiently decreased
Plasma clearance, geometric mean ([6]; 0.025 mg/kg): 78.0 mL/h
Volume of distribution, mean ([6]; 0.025 mg/kg): 2165 mL
half-life, mean ([6]; 0.025 mg/kg): 19.2 h
half-life, range ([6]; 0.025 mg/kg): 16.7 to 21.9 h
plasma concentrations quantifiable (>25 ng/mL) up to ([6]; 0.025 mg/kg): up to 96 hours
Plasma clearance, geometric mean ([6]; 0.05 mg/kg): 70.7 mL/h
Volume of distribution, mean ([6]; 0.05 mg/kg): 1903 mL
half-life, mean ([6]; 0.05 mg/kg): 18.7 h
half-life, range ([6]; 0.05 mg/kg): 15.3 to 25.1 h
plasma concentrations quantifiable (>25 ng/mL) up to ([6]; 0.05 mg/kg): ≤ 5 days
Plasma clearance, geometric mean ([6]; 0.1 mg/kg): 59.2 mL/h
Volume of distribution, mean ([6]; 0.1 mg/kg): 2010 mL
half-life, mean ([6]; 0.1 mg/kg): 23.5 h
half-life, range ([6]; 0.1 mg/kg): 17.7 to 33.1 h
plasma concentrations quantifiable (>25 ng/mL) up to ([6]; 0.1 mg/kg): ≤ 7 days
tmax ([6]; 0.1 mg/kg): ~1 h
AUC(0-infinity) relationship with dose ([6]; dose normalized, ANOVA): non-linearity at the highest dose
Cmax relationship with dose ([6]; dose normalized, ANOVA): linear relationship with dose
plasma concentration at which metabolic/elimination processes saturate ([6]; human, in vivo): > 400 ng/mL
number of adverse events ([7]; Peptide I group): 22
AEs considered probably not related to the study drug ([7]; Peptide I recipients): 15/22
Serious Adverse Events or withdrawals due to an AE ([7]; human, in vivo): no Serious Adverse Events (SAEs) or withdrawals from the study due to an AE
changes in vital signs, ECGs or laboratory values ([7]; human, in vivo): no clinically significant changes
subjects who developed antibodies specific to Peptide I ([7]; human, in vivo): None
overall safety and tolerability ([7]; single IV doses of 0.025, 0.05 or 0.1 mg/kg): safe and well tolerated
abdominal pain ([7]; subjects dosed with Peptide I): 10.0%
headache ([7]; subjects dosed with Peptide I): 20.0%
nasopharyngitis ([7]; subjects dosed with Peptide I): 10.0%
nausea ([7]; subjects dosed with Peptide I): 10.0%
subjects who experienced adverse events ([7]; subjects receiving Peptide I): 11 of 20
plasma persistence ([8]; in comparison to currently marketed rHuEPO products): sustained plasma persistence
Biodistribution ([8]; in vivo): primarily to the plasma fraction

Molecule: peptide dimer of SEQ ID NO: 3 monomers (AcG)GLYACHMGPIT(1-nal)VCQPLR(MeG) [Peptide II] (Ac-GGLYACHMGPIT[1Nal]VCQPLR[Sar]; disulfide 6-15 (inferred); not fully specified (residue 1); printed as (AcG)GLYACHMGPIT(1-nal)VCQPLR(MeG); also: homodimer, C-termini joined to the alpha- and epsilon-amino groups of a lysine linker, spacer and PEG on the linker)
EC90 ([1]; Table 2): 2.2 nM

B2: Peptide I (SEQ ID NO: 2) (peptide)
peptide: Ac-GGLYACHMGPIT[1Nal]VCQPLR[Sar]K
modifications: disulfide 6-15; not fully specified (residue 21); printed as (AcG)GLYACHMGPIT(1-nal)VCQPLR(MeG)K; also: PEGylated homodimer, second copy joined via the branched linker on K21 epsilon-amine, linker, PEG size and linkage not given here
IC50 [10]: 111 nM

Further lines, results first:

EC90 ([1]; Table 4): 6.2 nM
Molecule: Peptide IV: peptide dimer of SEQ ID NO: 1 monomers (AcG)GLYACHMGPIT(1-nal)VCQPLRK (Ac-GGLYACHMGPIT[1Nal]VCQPLRK; disulfide 6-15 (inferred); not fully specified (residue 1); printed as (AcG)GLYACHMGPIT(1-nal)VCQPLRK; also: homodimer joined through a branched tertiary amide linker on the Lys20 side chain, PEG carried on the linker)

EC90 ([1]; Table 2): 2.7 nM
Molecule: peptide dimer of SEQ ID NO: 3 monomers (AcG)GLYACHMGPIT(1-nal)VCQPLR(MeG) [Peptide III] (Ac-GGLYACHMGPIT[1Nal]VCQPLR[Sar]; disulfide 6-15 (inferred); not fully specified (residue 1); printed as (AcG)GLYACHMGPIT(1-nal)VCQPLR(MeG); also: homodimer, C-termini joined to the alpha- and epsilon-amino groups of a lysine linker, spacer and PEG on the linker)

IC50 [9]: 0.11 nM
B1: Peptide II (SEQ ID NO: 3) (peptide)
peptide: Ac-GGLYACHMGPIT[1Nal]VCQPLR[Sar]
modifications: disulfide 6-15; not fully specified (C-terminus); printed as (AcG)GLYACHMGPIT(1-nal)VCQPLR(MeG); also: homodimer of two monomers, C-termini joined to alpha- and epsilon-amino groups of a lysine linker with spacer and PEG

Reference: US7906485B2, “Erythropoietin receptor peptide formulations and uses” (Affymax, Inc., priority 2005, dated 2011)
